Literature values as cited in patent US20130337579.

Target: CRP (cited studies) (Escherichia coli) (UniProt P0ACJ8)
Test: EMSA
Settings: CITED Fried 1984

CRP (cited studies) (Escherichia coli), sequence (P0ACJ8 2-210): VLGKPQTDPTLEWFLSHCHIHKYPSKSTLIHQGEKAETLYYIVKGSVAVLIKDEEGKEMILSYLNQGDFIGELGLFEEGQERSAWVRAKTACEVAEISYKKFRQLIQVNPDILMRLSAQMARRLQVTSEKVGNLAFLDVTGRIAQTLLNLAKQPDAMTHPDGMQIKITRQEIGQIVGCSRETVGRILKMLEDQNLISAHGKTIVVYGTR

Substance: lac CRP oligo (Fried 1984)
- Kd (200 nM cAMP): 63 nM
- Kd (5 uM cAMP): 0.84 nM
